Data on one molecule can be found in PMC9504884, “Functional Interactions of Kluyveromyces lactis Telomerase Reverse Transcriptase with the Three-Way Junction and the Template Domains of Telomerase RNA”.

Common to all, as to test: EMSA; 1 nM RNA, tRNA competitor; 25 mM Tris-HCl pH 7.5, 50 mM KCl, 1 mM MgCl2, 1 mM DTT, 10% glycerol, 0.1% Triton, 0.5 mg/mL BSA, 1.7 ng/uL yeast tRNA, 1 nM RNA probe; 15 min on ice then 10 min room temperature; gel at 6 C
Data set [1] deals with T1, klTRBD klEst2 171-422 (Kluyveromyces lactis, UniProt Q6CSS0 171-422).
T1 sequence: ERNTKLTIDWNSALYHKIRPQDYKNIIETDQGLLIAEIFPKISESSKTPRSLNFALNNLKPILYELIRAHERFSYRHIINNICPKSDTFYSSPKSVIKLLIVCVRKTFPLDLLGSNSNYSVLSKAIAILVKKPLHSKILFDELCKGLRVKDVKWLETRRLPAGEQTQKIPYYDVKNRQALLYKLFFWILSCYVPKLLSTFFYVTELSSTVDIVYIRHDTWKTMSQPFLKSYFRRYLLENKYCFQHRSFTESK
The following applies: protein: recombinant; tags: N-terminal His-SUMO, TEV-cleaved; label: 5'-32P when probe; hairpin (TBE) with template.

The target of data set [2] is T2, klEst2 full-length (TERT) (Kluyveromyces lactis, UniProt Q6CSS0 1-861).
T2 sequence: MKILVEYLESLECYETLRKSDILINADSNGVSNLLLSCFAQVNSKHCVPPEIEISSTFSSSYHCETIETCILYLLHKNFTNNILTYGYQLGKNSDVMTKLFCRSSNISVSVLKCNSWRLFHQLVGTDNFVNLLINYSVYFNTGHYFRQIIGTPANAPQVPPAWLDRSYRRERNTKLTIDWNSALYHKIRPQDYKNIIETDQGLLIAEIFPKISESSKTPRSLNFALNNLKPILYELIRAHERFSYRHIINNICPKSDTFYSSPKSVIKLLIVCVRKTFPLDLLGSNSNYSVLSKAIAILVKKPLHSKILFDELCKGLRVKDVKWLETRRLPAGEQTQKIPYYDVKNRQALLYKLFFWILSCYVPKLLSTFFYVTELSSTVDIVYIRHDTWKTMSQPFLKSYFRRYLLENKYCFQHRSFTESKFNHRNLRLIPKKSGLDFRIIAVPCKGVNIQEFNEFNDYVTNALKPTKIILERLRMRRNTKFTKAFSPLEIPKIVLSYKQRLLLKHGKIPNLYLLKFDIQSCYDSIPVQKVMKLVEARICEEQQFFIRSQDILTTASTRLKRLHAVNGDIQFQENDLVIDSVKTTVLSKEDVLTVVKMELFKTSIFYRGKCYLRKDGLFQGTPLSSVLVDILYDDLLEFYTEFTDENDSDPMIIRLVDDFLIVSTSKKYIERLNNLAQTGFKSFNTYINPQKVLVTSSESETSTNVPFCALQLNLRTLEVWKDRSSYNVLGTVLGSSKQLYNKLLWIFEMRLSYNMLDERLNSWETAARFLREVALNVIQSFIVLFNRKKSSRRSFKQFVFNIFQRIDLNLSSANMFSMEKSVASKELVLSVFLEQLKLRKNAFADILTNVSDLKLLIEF
The following applies: protein: recombinant; tags: expressed in E. coli; His-SUMO tag described for the TRBD constructs, tag of full-length not clearly stated; label: 5'-32P when probe; hairpin (TBE) with template.

Data set [3] concerns the target T3, klTRBD klEst2 171-404 (Kluyveromyces lactis, UniProt Q6CSS0 171-404).
T3 sequence: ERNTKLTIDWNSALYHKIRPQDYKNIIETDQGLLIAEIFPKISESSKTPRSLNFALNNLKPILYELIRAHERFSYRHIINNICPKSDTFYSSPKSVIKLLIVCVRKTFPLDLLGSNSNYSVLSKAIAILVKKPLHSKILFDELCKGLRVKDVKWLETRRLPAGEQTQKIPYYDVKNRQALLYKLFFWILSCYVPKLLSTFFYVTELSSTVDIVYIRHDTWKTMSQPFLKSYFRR
The following applies: protein: recombinant; tags: N-terminal His-SUMO, TEV-cleaved; label: 5'-32P when probe; hairpin (TBE) with template.

B1: T + TBE (structured_RNA)
RNA: GGUAAGGACCAGUGCCACGAAAGUGGUACUUCAAAUCCGUACACCACAUACCUAAUCAAAACCG
For B1, the figures for the binding result in data set [1], in data set [2] and in data set [3] were “no binding”, “binds” and “no binding”, respectively.
